The assay concerns the target sCD146蛋白 (CD146胞外区蛋白, Sino Biological 10115-H08H-20) (human) (UniProt P43121). Put plainly: BLI (Octet Red96), against parental AA98. (In general: BLI is a label-free optical method that tracks binding on a fibre tip over time.)
Chain of UniProt P43121 (P43121 24-559): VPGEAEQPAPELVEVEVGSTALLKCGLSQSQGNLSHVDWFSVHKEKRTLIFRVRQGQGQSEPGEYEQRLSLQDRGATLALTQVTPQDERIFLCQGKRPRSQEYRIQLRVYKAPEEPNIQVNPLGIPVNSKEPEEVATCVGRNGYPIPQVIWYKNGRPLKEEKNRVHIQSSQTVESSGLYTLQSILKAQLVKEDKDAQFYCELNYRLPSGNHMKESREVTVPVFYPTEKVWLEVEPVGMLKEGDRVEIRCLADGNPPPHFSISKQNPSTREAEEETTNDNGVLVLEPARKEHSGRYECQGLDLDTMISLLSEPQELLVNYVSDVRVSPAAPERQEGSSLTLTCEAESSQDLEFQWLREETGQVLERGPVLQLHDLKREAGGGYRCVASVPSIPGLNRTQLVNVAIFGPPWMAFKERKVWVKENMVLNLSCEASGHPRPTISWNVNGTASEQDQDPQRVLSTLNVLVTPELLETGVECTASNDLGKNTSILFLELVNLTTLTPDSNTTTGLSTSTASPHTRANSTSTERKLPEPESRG

On to “H13-112抗体 (AA98 variant, heavy chain I28K and light chain L51Y) (antibody)”, for which the fold increase of affinity against AA98 turned out to be 10 fold.
